Source: publication PMC5057104, “The unravelling of the complex pattern of tyrosinase inhibition” (Scientific Reports, 2016)

Columns and labels:
[1] = substrate: N[C@@H](Cc1ccc(O)c(O)c1)C(=O)O; assay: Kinetic analysis of tyrosinase (Lineweaver-Burk plots); assay type: biochemical, Bacillus megaterium; conditions: other: compound as TyrBm natural substrate; pH 7.4; 40.0 °C
Procedure: (§1) Tyrosinase inhibitory activity was determined spectrophotometrically in 96-well plates with a final volume of 200 μl. First, 50 mM PBS buffer pH 7.4 and 0.01 mM CuSO4 were mixed with 6 μg ml^−1 of purified enzyme. Then, the mixture was incubated at 40 °C for 2 minutes. Finally, various concentrations of inhibitor were mixed with 1.2 mM L-tyrosine or 2 mM L-dopa and were added to the pre-incubated mixture. […] The reaction mixture was then monitored for L-dopachrome formation (ε = 3600M^−1 cm^−1) by measuring the absorbance at 475 nm. Specific activity was calculated as the ratio of the conversion rate and the total protein content as determined by the Bradford analysis method (Bio-Rad, Israel). All measurements were performed in seven replicates.
(§2) The inhibition kinetics module of Sigma Plot 13.0 software was used (Systat Software, Inc., Richmond, CA, USA). All measurements were performed in 5-replicates.

[2] = substrate: N[C@@H](Cc1ccc(O)cc1)C(=O)O; assay: as above; assay type: biochemical, Bacillus megaterium; conditions: other: compound as TyrBm natural substrate; pH 7.4; 40.0 °C
Procedure: as §1, §2

B1: TyrBm (tyrosinase from Bacillus megaterium) (Priestia megaterium) (protein)
chain: MSNKYRVRKNVLHLTDTEKRDFVRTVLILKEKGIYDRYIAWHGAAGKFHTPPGSDRNAAHMSSAFLPWHREYLLRFERDLQSINPEVTLPYWEWETDAQMQDPSQSQIWSADFMGGNGNPIKDFIVDTGPFAAGRWTTIDEQGNPSGGLKRNFGATKEAPTLPTRDDVLNALKITQYDTPPWDMTSQNSFRNQLEGFINGPQLHNRVHRWVGGQMGVVPTAPNDPVFFLHHANVDRIWAVWQIIHRNQNYQPMKNGPFGQNFRDPMYPWNTTPEDVMNHRKLGYVYDIELRKSKRSS
notes: made in house; host or cells: Escherichia coli BL21
**Q.** Which Km [1] does the source give for B1 here?
**A.** 240 ± 20 µM

**Q.** And the Vmax [1]?
**A.** 30.3 µmol/min/mg

**Q.** And the kcat [1]?
**A.** 17.8 s⁻¹

**Q.** What about the kcat/Km [1] of the same protein?
**A.** 74200 M⁻¹ s⁻¹

**Q.** What about the Km [2] of the same protein?
**A.** 82 ± 6 µM

**Q.** What about the Vmax [2] of the same protein?
**A.** 3.62 µmol/min/mg

**Q.** And the kcat [2]?
**A.** 2.1 s⁻¹

**Q.** And the kcat/Km [2]?
**A.** 25600 M⁻¹ s⁻¹
